Source: a protein production outcome set (Wang et al. 2014)

assay: label from the status in PepcDB records

Sequence	protein production
MFFNKKNNQDELKKLAATEAAKSITTEITLGVGTGSTVGFLIEELVNYRDKIKTVVSSSEDSTRKLKALGFDVVDLNYAGEIDLYIDGADECNNHKELIKGGGAALTREKICVAAAKKFICIIDESKKVNTLGNFPLPIEVIPMARSYIARQIVKLGGQPVYREQTITDNGNVILDVYNLKIDNPLKLETELNQITGVVTNGIFALKPADTVIMATKDSNIVVL	not failed
MFGLSKRAITILFGLLALAFALGAILLFTPQAGQQTRGKPVLWVNGKALYELDLLRLQGNDPLYAASPEGLLKTLVDTYFLEQVILTEALKQDAARVRVSSAEVRQEVNRIREQFGLKDKAAYEQFLNQVGYTDAQLRAEVKTQLQIQKRLEQIRSGAKPTEEEVRFYYEVFKENYRTEPRVKARQIVVDDKALAEELAAKAKAGEDFAALARQHSKVGAEQGGALGAGPGEAEPKPVTQVVFPTEVGEAVFALKGPGVVGPIAAGGRYYIVKVEEYLPSTLPAFEEVKDRVAQDAERAKGNGVLEAYLEELRKKAQVRFAEDNPYAYQNPPVAKVNEKEILLSEVLQPVFSNQQTVALVQQGLGELAVQFFLPQTLENLIDRELLVEAARKSGKPFIGSKAEIAEAYLRYETRDVTASEEEARAFYSENPALFTVPASAKVIGVNFKEEAQAKAFRAAALRGGDLEALAKAQEGTVTDYGTVNPNQLPAVLDRLVFKITETFPQGPLGEVSEVIKMEDGSYTVLLISDRKAEELKGFAQVAEEARQGAVNRKRSEKAQALIQALREEAKIENRLAEVLQALTPKTPSQDQPNSQEQPQPEEAPANNP	failed
MFGPFKPAPHIAELPAEKIDSTYKRLRWQVFAGIFFGYAAYYFVRANFDLAQPGLIQAGLYSKAELGVIGSAAGLAYGLSKFVMAGMSDRSNPRVFLPFGLLLSGLCMTLMGLFPWATSGIAIMWVMIFLNGWFQGMGWPPCGRTMVHWWSKSERGTIVSIWNTAHNIGGMVPGAMVLLASAIFFSTHGIEAQAKDVWQQSLYFPGIAAMIFAIPVYFVMRDTPQSCGLPSIEKWRNDYPDDYNEKTYENDLTAKEIFVTYVLKNKLLWYIAIANVFVYLIRYGVLKWSPVYLSEVKHFNIKGTAWAYTIYELAAVPGTLLCGWVSDKVFKGKRGLTGFIFMILTTAAVVAYWMNPATPEAELANYSAWYENPYQLTDFVLMTLIGFLIYGPVMLIGLHALELAPKKAAGTAAGFTGLFGYLGGTVSASAVIGWAAQHYGWDGGFYVMIGGGVLAVLLLLIVMVEEGKHKAKLGDTYGTK	failed
MFIMQPEDTMTLIHDIILASWDILLEAAPYVLFGFFVAGLLKAYVPASFVARHLGRGHVGPVFKAALFGIPLPLCSCGVIPAAAGLRQQGASKGATTSFLIATPETGVDSMAVTWALLDPVMTVARPFAALLTSVAAGLMVDLFPERKRGESEISPPVMSPSRDAALHDGPTTLPAPVIAPVLHGAAGIAAAGSVSLGPIREHAACTCSGHASVAASACCGTSHSVSAPSGASCGCGSAAHAHSGTGCCGHDTPIGQVSGGFSGVVERFRGGMRFAFGELVADIGGWLLLGVVLAAVITILIPDDLFSGTFASGIGGILLMMVVGIPLYVCATASTPIAAAFALKGISPGAALVFLLAGPATNVATITVVARMLGRKAAVIYVAVIGVMSVALGLAVNMLYGWLGMGVTGWVQGSADAEPGMLSAVAAVVLLLLVLYQWLPALVARLRGEAHPAGCGCGH	failed
MFITFEGIDGSGKTTQSHLLAEYLSEIYGVNNVVLTREPGGTLLNESVRNLLFKAQGLDSLSELLFFIAMRREHFVKIIKPSLMQKKIVICDRFIDSTIAYQGYGQGIDCSLIDQLNDLVIDVYPDITFIIDVDINESLSRSCKNGYEFADMEFYYRVRDGFYDIAKKNPHRCHVITDKSETYDIDDINFVHLEVIKVLQMV	not failed
MFIYGSDRLGGKMDINGFIEELDSLYTERRINDVEPFFNESIEQAKKENDLAAQFTILNEMMGFFRDTSQFEKSIKACNDCIELMKKMGIEGTVDYATSLQNVANAYRAAGKLAESLEVYKEVFSIYNENIPSDDYRMASLNNNIALLYQEMNDFPMAVQHLKKALSIIEKIEGMDIEVATTYTNLAASLIEINQASQAEDYLKKALEIFDRDEVKNFHYSGALCAMASVKCSLNQYEEAAKLYEKALPEIEANMGRGSAYNITKENLAKVFDKIKEEKKELTGIELAKSFYEEYGKDMIHNNFSEYEDKIAVGFVGEGSERFGFDDVYSRDHDFGPGFCMWITEDVYEKIGEKLQDEYNKLPKSYKGITRVDTIMAEGRVGVCVVEDFYKKYTGSGDGNLTLEQWINLEDYKIATVTNGEVFRDDLGYFSKIRRKFENQPFQARLVKLARQLGAMAQTGQSNYERAMARKDYVTAQICISDFMKETMKCVYILNNKFAPYYKWLFKGVSRLDGTEKIVSLLEKLSQLPAQKNAWDGYLYDNTKFNEKDEKAIIMEEIAKIIIDKLLELKLIKNRNSNFLNDYVRPIMDLAEGKVEMFDREKTIDKIVKLEFEAFDKVQNVGGRASCQNNWPFFYVMRKSQYMTWTDEMLECICNLWEENKAKGWNMITEKYGRMMEHTSPEEYKKIKDNFPEKSERTIAIVNQIAQIQVDWMKDFAKSYPKLASNARDITSDADQIDNTSYETYLKGELLTYSEELLKLYAQFIVNLAREGKNLAYMTIENTAHLQGYATLEAAESSIR	failed
MFKGLRYLTFVFGGLLGILLAYGFGQVVELELSKFAVISIYSIFAIIFGIIFYLLFPVILKKLTVNFENMIKKAQKTPTSDIVTAIIGLIVGLIIAFLISLPISNIKFPVIGNLLSATITIFIYCALGFIGIKIAVDKKEEILKFKLFSREKSFKKGHVYPKILDTSVIIDGRIYDIIKTGFLEGPIIIAMFMVKELQYIADSEDPNRRQRGRRGLDILDLLQNEKNIEIKIVDKDYKNIKEVDHKLLKLTEDYHGKLITNDYNLNKVASLQKISILNINELALAVKPVVIQGEKLIVEVINRGKEPEQGLGYLSDGTMIVVEDGKDYIGQTIETTVTSILQTPAGKMIFTRKNLK	failed
MFKIQEVRELIKLIDSSNIDEFEYKKDGTTIKMKKRGNEVVAVQAPVAKQAVQPVAPVEVETTVAAAQVEVPKQEEKKAVQNENLHKITSPMVGTFYSSSSSSPDTPPYVSVGDRVSKDSIVCIVEAMKLFNEIDADVDGEIVEILVNNGQLVEYGQPLFLVKA	failed
MFKRIAQTAGFTGLLAALLLTLLQSFWVVPLIQQAETYEKAPAEHVHEHADGAVAEHSHAHDEAAWEPENGWQRVLSTTGGNLVVAVGFALMLAGLYTLRAPGRTAQGAWWGLAGFAVFVLAPTLGLPPELPGTAAAELSQRQLWWIGTAASTAAGLALLVFGQNWLLKVLGAAILVVPHVIGAPQPLVHESLAPEALESQFRVASLLTNALFWVALGLISAWLFRRSNVHTDNAHSNHA	failed
MFKRIGLISIALSLNTISFTSEACSALVFNKNKPATVAVNLDWKYREGAFVIHPRNAMMVSSVDYHSMHPLIWKSQYGSVIFHGGNRFKAGPSADGMNEKGLTASILMLDSSIYPSNSELPALKTTEWVQYILDNFQTVQEVIDDSSNYQLVADTYRGITMNVHLMVSDAEGKSAVFEYLDGKLVIHTQDNLTTPVLTNTDYKLSLALLEEYQDHGGSKALPGGYDSKSRFVRAAHYLKKLPSFIAKEEHIAYAFNGLNVVTQAPGTSSPTQLSMVFDIPTKTIYFRSINEAALRVIPMDSIDFDYLYQPIALNVYQHLSGDVTDKFQPMIG	failed
MFKRLKDSALLFWSLEILIVATLIWVCTNIGFLFQPIGTFLSVVFMPILISGFLFYMLNPLVKLLTKVHYKKFRISRTGAVAIVFVLLFGLLVWGAVSLLPRLVSQVTQLIYNLPSIATEMQKAATKLINNSSVLKRIDISSYTKQFNGEISKYSQNFLSSLSSSVVTVISTITSVTIMAITIPVVLFYMLKDSEKFIPAISRFLPKKQRPEVIGLLQKMGDTISSYISGQVIECLFVGTFTAIGYMLISQPYGLLLGVIAGLTNIIPYVGPYIGIAPSLIVAFTKSPMQVVYVIIVVVIVQQVDGNLIYPNIIGRTLKIHPLTIIILLLAAGNIAGILGMILAIPFYAVVRTVVIYLYNIVELRNEEHLRKQTTVYQPQPAKATKADLTTTTKSKK	failed
MFKTVIIMLMAVSAGTIGDILLAKGMKELGDLSAMNLRGILNVAGQALTSPKLIFGTAMLAIFFFLWLAVLSWEDLSVALPMQALNYVLVAFLSQWFLGETVSPLRWTGTIMVCVGVMLITKSGTP	failed
MFLDYFALGLLIFVALVIFYGIIVIHDIPYEIAKEREHPHQDAIHYAGWVSLFTLHALWPFLWIWATLWRKERGWGFQKLEAEQHDIHHRVDVLIDEVKQLRTELETLKTSSLSVPKSTPAASTSEEKQ	failed
MFLRGNPDKTEPAFDARPLKTKEIARFGEGTPLPWLDRHALACVDASGDLRDVLKSTALAITLFCACTGPAMAYAPDETPIVIGRSTLLESKVLGQLRRINVHTPADYATSGKTYPVLFLLDGGEREDFPHIAGLAQLGELSWTYREMIVVGIEGIDRRHDLTHPSTVAQEQADFPTLGGSAAYRRFLSEELKPWVAARYRTNGESAIMGESLAGLFVIETLLKQPTLFDAYIAASPSLWWSDQALARGAPADIARWPALGSRKLYLTIGDEGSTMQEGVDKVMAAIGAAKPAGLTLVYDPMPHEQHSTIYHPAALKAFRTVWPGPRPD	failed
MFLRIDRLQIELPMPKEQDPNAAAAVQALLGGRFGEMSTLMNYMYQSFNFRGKKALKPYYDLIANIATEELGHIELVAATINSLLAKNPGKDLEEGVDPESAPLGFAKDVRNAAHFIAGGANSLVMGAMGEHWNGEYVFTSGNLILDLLHNFFLEVAARTHKLRVYEMTDNPVAREMIGYLLVRGGVHAAAYGKALESLTGVEMTKMLPIPKIDNSKIPEAKKYMDLGFHRNLYRFSPEDYRDLGLIWKGASPEDGTEVVVVDGPPTGGPVFDAGHDAAEFAPEFHPGELYEIAKKLYEKAK	not failed
MFLSVVTVAFRNYEGVVKTWRSLRNLARDPGLSFEWIVVDGGSEDGTREFLQKRHGEFNLRFISEKDRGIYDAMNKGIALAQGRYTLFLNSGDAFHDDAALFVRQLARQKGEAMYIGDALLDFGGGHKIRRKAKPGYYIYHSLPASHQAIFFPTAALKKYPYDLQYHVSSDYALAARLYKAGYPFRRINGLVSEFSMGGVSTSNNLELCQDAKNVQRKILRVPGFWAQLSYLLRLKTTGKTKARYNKVLEHHHHHH	failed
MFLVTGATGDIGRRVIRLLREHNHSVRGFARLTSRYGELEHRGANIFIGDLRREQDIEKACQGVQYIISAHGSDNDALTLDYRANIALIDQAKANGVQHFVFISVLGAERGYEDAPVFKAKRAVENYLAASGLNYTILRPAGLASNLLPLAERFRETGLYLLIGDPKNRTSIVSTDDLARIVVDSVTVPEARNQIFSVGGPEILLREDIPQIFSHIFKKEPIVVNSPLLVIDGLRGVLGLINPEAQQALGTFRTLLSNEFFCRKDEIAKLEQTFNFPLETLESFLRRYLAVLEHHHHHH	failed
MFMYTEFRSQLLAGAGTSAAGQSARMAVLAGDGATGVQVSCVVPGLNEAANLRVLVPALRACLEQWCASWEIIVVDDGSTDDTAELMAQWSAVEGIRYVQLSRNFGKEAALTAGLEAADGDAVICLDADMQHPPELIGDMLAAWRNGADMVYAVRRQRDDEPWFKRVGARAFYRLLSTARGVEVPPHAGDFRLMDRRVVEALVALPERTRFMKGLYAWVGFKSQAVPYTPQARRHGASHFSAWKLFRLACDGLTAFTTWPLRLVSLIGVLFALLSLSYGGYLVADYLISGNAVSGWTTIVTALLFFAGINLISLGVVGEYVARIFDEVKGRPLFIARQRRGRAKRAAKARSQ	failed
